Source: patent US20240343803A1

Target: cynomolgus monkey PVRIG on FlpinCHO-cyno PVRIG cells (cynomolgus monkey)
Test: FACS, FlpinCHO-cyno PVRIG cells

Chain of cynomolgus monkey PVRIG on FlpinCHO-cyno PVRIG cells (cynomolgus monkey) (chain, as listed by the source): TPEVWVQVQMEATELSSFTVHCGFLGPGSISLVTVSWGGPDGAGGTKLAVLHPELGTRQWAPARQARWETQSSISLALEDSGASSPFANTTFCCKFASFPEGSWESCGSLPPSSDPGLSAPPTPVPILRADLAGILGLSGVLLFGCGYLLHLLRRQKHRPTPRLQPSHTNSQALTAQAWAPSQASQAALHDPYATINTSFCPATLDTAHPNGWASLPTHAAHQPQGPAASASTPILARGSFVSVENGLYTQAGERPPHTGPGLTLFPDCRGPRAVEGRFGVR

AUC % to COM701-hIgG1: 3.27%
AUC % to SRF813-hIgG1: 4.05%
AUC % to parental Ab: 3.74%
B1: PVRIG-A105-H3a (Fc fusion, not shown: a dimerising Fc or GST)
chain: EVQLVESGGGLVQPGGSLRLSCAASGRTFDRHTMTWFRQAPGKEREFVATASRIPGDTYYVDSVKGRFTISRDNAKNSVYLQMNSLRAEDTAVYYCAATSAYSSEVDSYEKGSWYDNWGQGTMVTVSS
